In patent US20260159596A1 (published 2026):
Changes are numbered by the printed parent chain.

T1: recombinant DR3 (DR3-His tag) (human, UniProt Q93038 25-199)
T1 chain: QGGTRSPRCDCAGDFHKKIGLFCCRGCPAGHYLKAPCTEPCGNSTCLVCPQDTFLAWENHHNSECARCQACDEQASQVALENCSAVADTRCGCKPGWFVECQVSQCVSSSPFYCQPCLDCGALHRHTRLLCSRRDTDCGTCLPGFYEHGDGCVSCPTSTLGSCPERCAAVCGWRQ

B1: anti-DR3 2-10 monoclonal antibody (antibody, V domains shown)
VH: QVQLVQSGAEVKKPGASVKVSCKASGYTFTSYGISWVRQAPGQGLEWMGWISAYNGNTNYAQKLQGRVTMTTDTSTSTAYMELRSLRSDDTAVYYCASGPDYGMLDYWGQGTLVTVS
VL: EIVMTQSPSSLPASVGDRVTITCQASQDISNYLNWYQQKPGKAPKLLIYDASNLETGVPSRFSGSGSGTDFTFTISSPQPEDIATYYCQQYDNLPLTFGGGTKVEIK
B2: anti-DR3 6-15 monoclonal antibody (antibody, V domains shown)
VH: QVQLVQSGGGLVQPGGSLRLSCAASGFTFSSYSMNWVRQAPGKGLEWVSYISSSSSTIYYADSVKGRFTISRDNAKNSLYLQMNSLRAEDTAVYYCARWDGYCSGGSCYSGMDYWGQGTLVTVS
VL: B1 VL with E1D, V3E, P12S, R18K, F71S, P78L
B3: anti-DR3 6-2 monoclonal antibody (antibody, V domains shown)
VH: B2 VH
VL: not shown
B4: TL1A (tumor necrosis factor-like ligand 1A), His tag (ligand)
chain: LKGQEFAPSHQQVYAPLRADGDKPRAHLTVVRQTPTQHFKNQFPALHWEHELGLAFTKNRMNYTNKFLLIPESGDYFIYSQVTFRGMTSECSEIRQAGRPNKPDSITVVITKVTDSYPEPTQLLMGTKSVCEVGSNWFQPIYLGAMFSLQEGDKLMVNVSDISLVDYTKEDKTFFGAFLL
B5: clone 4-4 IgG2 monoclonal antibody (antibody, V domains shown)
VH: EVQLVESGGGLVKPGGSLRLSCAASGFTFSDYYMSWIRQAPGKGLEWVSYISSSSSYTNYADSVKGRFTISRDNAKNSLYLQMNSLRAEDTAVYYCASNVDTAMVGAFDIWGQGTLVTVS
VL: DIEMTQSPSSVSASVGDTVTITCRASQHISNWLAWYQQKPGQAPKFLIYTASNLQSGVPSRFSGSGYGTDFTLTISGLQPEDFATYYCQQADSFPLTFGGGTKVDIK
B6: clone 4-4 IgG1 monoclonal antibody (antibody, V domains shown)
VH: B5 VH
VL: B5 VL
B7: anti-DR3 3-18 monoclonal antibody (antibody, V domains shown)
VH: QVQLQQSGPGLVKPSETLSLTCTVSGGSISSSSYYWGWIRQPPGKGLEWIGSIYYSGSTYYNPSLKSRVTISVDTSKNQFSLKLSSVTAADTAVYYCARQVSGPLDYWGQGTLVTVS
VL: DIVMTQSPSSLSASVGDRVTITCRASQGIRNDLGWYQQKPGKAPKLLIYAASSLQSGVPSRFSGSGSGTDFTLTISSLQPEDFATYYCLQDYNYPRTFGQGTKVEIK

Target: T1, recombinant DR3 (DR3-His tag)
Assay: SPR

Kd | Binder
0.693 nM | B1
82.4 nM | B2
3.91 nM | B3
426 nM | B4
35.8 nM | B5
1.56 nM | B6
0.0463 nM | B7
